{"source": "the nanobody polyreactivity screen of Harvey et al. (2022)", "data": [{"assay": "yeast display, Sf9 membrane polyspecificity reagent, FACS + sequencing; frameworks hold sequencing errors", "outline": "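Galactose-induced (36–48 hours) yeast carrying a synthetic nanobody display library were exposed to 10% biotinylated, detergent-solubilized Sf9 membrane reagent at 4 °C for 1 hour. FACS followed streptavidin microbead enrichment, using low and high (top ~1%) gates for expression (anti-HA) and reagent binding (streptavidin). Colony PCR, MiSeq 2 × 250 sequencing and CDR-length filtering followed. Labels for polyreactivity reflect the gate of origin.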", "values": [{"sequence": "QVQLVESGGGLVQAGGSHRLSCAASGIILYHYAMGWYRQAPGKERELVATITSGGSTNYADSVKGRFTISRDYAKNTVDLQMNSLKPEDTAVYYCAAVPSRYGRYRYYYWGQGTQVTVSS", "polyreactivity (PSR sort gate)": "high polyreactivity"}, {"sequence": "QVQLVESGGGLVQAGGSHRLSCAASGIIYYYNTMGWYRQAPGKEREFVAAISNSGGRTYYADSVKGRFTISRDNAKNTVYLQMNSLKPEDTAVYYCAARYVLFSNRFDYWGQGTQVTVSS", "polyreactivity (PSR sort gate)": "high polyreactivity"}, {"sequence": "QVQLVESGGGLVQAGGSHRLSCAASGITFTGYGMGWYRQAPGKERELVAAIRLRTGSTYFADSVKGRFTISRDNAKNTVYLQMNSLKPEDTAVYYCNKVTVYRFRGVSWGQGTQVTVSS", "polyreactivity (PSR sort gate)": "high polyreactivity"}, {"sequence": "QVQLVESGGGLVQAGGSHRLSCAASGITFYWYAMGWYRQAPGKERELVAAITRSVGSTYYADSVKGRFTISRDNAKNTVYLQMNSLKPEDTAVYYCAADFYYYGFDYWGQGTQVTVSS", "polyreactivity (PSR sort gate)": "low polyreactivity"}, {"sequence": "QVQLVESGGGLVQAGGSHRLSCAASGRIFEDYAMGWYRQAPGKERELVARISSGDSTNYADSVNGRFTLSRDNAKNTVYLQMNSLKPEDTAVYYCAAEGGVQEFDYWGQGTQVTVSS", "polyreactivity (PSR sort gate)": "low polyreactivity"}, {"sequence": "QVQLVESGGGLVQAGGSHRLSCAASGRIFSTYAMGWYRQAPGKERELVAAINKIGGSTYYADSVKGRFTISRDNAKNNVYLQMNSLKPEDTAVDYCAADAPHYPVRRYYYWGQGTQVTVSS", "polyreactivity (PSR sort gate)": "low polyreactivity"}, {"sequence": "QVQLVESGGGLVQAGGSHRLSCAASGRIFVGYTMGWYRQAPGKERELVAAITSGGSTYYADSVKGRFTISRDNAKNTVYLQMNSLNPEDTAVYYCNAAYQFDSYHLGGYGYEYWGQGTQVTVSS", "polyreactivity (PSR sort gate)": "low polyreactivity"}, {"sequence": "QVQLVESGGGLVQAGGSHRLSCAASGRIFVKYAMGWYRQAPGKERELVAAITKSGSSTYYADSVKGRFTISRDNAKITVYLQMNSLKPEDTAVYYCAALTISRSRTGYYWGQGTQVTVSS", "polyreactivity (PSR sort gate)": "low polyreactivity"}, {"sequence": "QVQLVESGGGLVQAGGSHRLSCAASGRINYNYAMGWYRQAPGKERELVAAISGSGGSTYYADSVKARFTISRDNAKNTVYLQMNSLKPEDTAVYYCSTSGPQYDSRNFDYWGQGTQVNVSS", "polyreactivity (PSR sort gate)": "low polyreactivity"}, {"sequence": "QVQLVESGGGLVQAGGSHRLSCAASGRTFKGNAMGWYRQAPGQERELVAAISSRGGRTFYADSVKGRYTISRDNAKNTVYLQMNSLKPDDTAVYDCAAYSPLTKTPDSPVRYDYWGQGTQVTVSS", "polyreactivity (PSR sort gate)": "high polyreactivity"}, {"sequence": "QVQLVESGGGLVQAGGSHRLSCAASGRTFPFYAMGWYRQAPGTERELVADITSSGGSTYYADSVKGRFTISRDNAKNTVYLQMNSLKPEDSAVYYCAADPIDISYWEFDYWGQGTQVTVSS", "polyreactivity (PSR sort gate)": "low polyreactivity"}, {"sequence": "QVQLVESGGGLVQAGGSHRLSCAASGRTFRYNAMGWYRQATGKERELVAAISTRGGSTYYADSVKGRFTISRDNAKNTVYLQMNSLKPEDTAVYYCATKVYSSRYRGYGYWGQGTQVTVSS", "polyreactivity (PSR sort gate)": "high polyreactivity"}, {"sequence": "QVQLVESGGGLVQAGGSHRLSCAASGRTFSGYAMGWYRQAPGKERELVAAISFSGGSTYYADSVKGRFTISRDNAKNTVYLQMNSLKPEDTAVYYCAAEFVRQNYEMDYWGQGTQVTVSS", "polyreactivity (PSR sort gate)": "low polyreactivity"}, {"sequence": "QVQLVESGGGLVQAGGSHRLSCAASGRTFSYNAMGWYRQAPGKERELVASITSSGGGTSYADSVKGRFTISRDNAKNTVYLQMNSLKPEDTAVYYCNRVLPHPDGYGVGARGYWGQGTQVTVSS", "polyreactivity (PSR sort gate)": "high polyreactivity"}, {"sequence": "QVQLVESGGGLVQAGGSHRLSCAASGRTFSYYAMGWYRQAPGKEREMDADISKSGGRTYYADSLKGRFTISRDNAKNTVYLQMNSLKPEDTAVYYCAAGFYWAVYYSVDYWGQGTQVTVSS", "polyreactivity (PSR sort gate)": "high polyreactivity"}, {"sequence": "QVQLVESGGGLVQAGGSHRLSCAASGRTFYRNAMGWYRPAPGKERELVAAITSGGGTTYADSVKGRFTISRDNAKNTVYLQMNSLKPEDTAVYYCAKRYNGRFRLGYEYWGQGTQVTVSS", "polyreactivity (PSR sort gate)": "high polyreactivity"}, {"sequence": "QVQLVESGGGLVQAGGSHRLSCAASGSIFNRYAMGWYRQAPGKERELVAAITAGGSSTYYADSVKGRFTISRDNAKNTVYLQMNSLKPEDTAVYYCNAVWWHPKDYDYWGQGTQVTVSS", "polyreactivity (PSR sort gate)": "low polyreactivity"}, {"sequence": "QVQLVESGGGLVQAGGSHRLSCAASGSIFQSYAMGWYRQAPGKERELVAAIDRSGTSTYYADSVKGRFTISRDNAKNTVYLQMNSLKPEDTAVYYCNTLRRSWQMDYWGQGTQVTVSS", "polyreactivity (PSR sort gate)": "low polyreactivity"}, {"sequence": "QVQLVESGGGLVQAGGSHRLSCAASGSIFRGYAMGWSIQAPGKERELVAAISWRGTSTYYADSVKGRFTISRDNAKNTVYLQMNSLKPEDTAVYYCAADLDGDYYYYGQGNDYWGQGTQVTVSS", "polyreactivity (PSR sort gate)": "low polyreactivity"}, {"sequence": "QVQLVESGGGLVQAGGSHRLSCAASGSIFSTYAMGWYRQAPGKERELVAAITSDGTYADSVKGRFTISRDNARNTVYLQMNSLKPEDTAVYYCAAYYPYTRHGDYWGQGTQVTVSS", "polyreactivity (PSR sort gate)": "low polyreactivity"}, {"sequence": "QVQLVESGGGLVQAGGSHRLSCAASGSIFYKNAMGWYRQAPGKERELVAAITKRGGTTYYADSVKGRFTISRDNAKNTVYLQMNSLKPEDTAVYYCAKYLGPASIVRYEYWGQGTQVTVSS", "polyreactivity (PSR sort gate)": "high polyreactivity"}, {"sequence": "QVQLVESGGGLVQAGGSHRLSCAASGSTYTYNAMGWYRQAPGKERELVAAISSSGGTTYYADSVKGRFTISRDNAKNTVYLQMTSLKPEDTAVYYCAKRWLYTSAFRIMDYWGQGTQVTVSS", "polyreactivity (PSR sort gate)": "high polyreactivity"}, {"sequence": "QVQLVESGGGLVQAGGSHRLSFAASGSLFYWYAMGWYRQAPGKERELVAAITTSGGRTYYADSVKGRFTISRDNAKNTVYLQMNSLIPEDSAVYYCNSAALFRYYDRWKTAYDYWGQGTQVTGSS", "polyreactivity (PSR sort gate)": "high polyreactivity"}, {"sequence": "QVQLVESGGGLVQAGGSHRLSGAASGFIFFYYDMGWYRQAPGKERELVAAISWSGSSTYYADSVNGRFTISRDNAKNTVYLQMNSLNTEDTAVYYCAARYAPSQDWDEYYYWGQGTQVTLSS", "polyreactivity (PSR sort gate)": "low polyreactivity"}, {"sequence": "QVQLVESGGGLVQAGGSHRLSSAASVRIFRGYAMGWYRPAPGKERELVAVISYSGTRTYYADSVKGRFTISRDNAKNTVYLQMNSLKPEDTAVYYCNASANGFKEGYWGQGTQVTVSS", "polyreactivity (PSR sort gate)": "high polyreactivity"}, {"sequence": "QVQLVESGGGLVQAGGSHRVRCAASGRTFSQYDLGWYRQEPGKERELVAAITRSGSRTYYADSVKGRFTISRDNAKNTVYLQMNSLKPEDTAVYYCNARSISRKKGYPPQRRDGYWGQGTQVTVSS", "polyreactivity (PSR sort gate)": "high polyreactivity"}, {"sequence": "QVQLVESGGGLVQAGGSIRLSCAASGFIFQRYSMGWYRQAPGKERELVAAISSSGGSTYYADSVKGRFTISRDNAKNTVYLQMNSLKPEDTAVYYCAARVPPRTLAYYYWGQGTQVTVSS", "polyreactivity (PSR sort gate)": "high polyreactivity"}, {"sequence": "QVQLVESGGGLVQAGGSIRLSCAASGFIIKVYAMGWYRQAPGKERELVAAITWSGGSTYYADSVKGRFTISRDNAKNNVYLQMNSLKPEDTAVYYCNTDAYRYPEYDYWGQGTQVTVSS", "polyreactivity (PSR sort gate)": "low polyreactivity"}, {"sequence": "QVQLVESGGGLVQAGGSIRLSCAASGFTFSQYVMGWYRQAPGKERELVAAISYRGGSTYYADSVKGRFTSARDNAKNTVYLQMNSLQPEDTAVYYGAAVAYSWHNRYDYCGQGTQVTVSS", "polyreactivity (PSR sort gate)": "high polyreactivity"}, {"sequence": "QVQLVESGGGLVQAGGSIRLSCAASGRIFGSYVRGWYRQGPGKESELVAAISRRGGSTYYADSVTWRFTISRDNAKNTVYLQMNSLTPEDTAVYYCAAEFSPSSNPYDYWGQGTQVTVSS", "polyreactivity (PSR sort gate)": "high polyreactivity"}, {"sequence": "QVQLVESGGGLVQAGGSIRLSCAASGRTFGYYAMGWYRQAPGKERELVAAITRTGGSTHYADSVKGRFTISRDNAKNTVYLQMNSLKPEDTAVYYCALDYRYTIPYDYWGQGTQVTVSS", "polyreactivity (PSR sort gate)": "low polyreactivity"}, {"sequence": "QVQLVESGGGLVQAGGSIRLSCAASGSIFWYNAMGWYRQAPGKERELVAGITSGGDTNYADSVKGRFTISRDNAKNTVYLQMNRLKPEDTAVYYCAKRWDGGRRYDYWGQGTQVTVSS", "polyreactivity (PSR sort gate)": "low polyreactivity"}]}]}
